Experimental data from article PMC12250083 (International Journal of Molecular Sciences, 2025).
Substitutions are numbered along the chain they refer to. Blank lines part the entries; values can stand above or below the molecule they belong to.

Tests used:
[1] = target: T1, acetone carboxylase (XaAC) (Xanthobacter versatilis, UniProt Q8RM03+Q8RM04, Q8RM03:E89A); test: differential scanning fluorimetry, SYPRO orange; assay type: binding; conditions: 10 mM AMP; 100 mM Tris, 100 mM KCl, pH 7.6; absolute Tm, not a shift
T1 construct: gene acxA; recombinant from E. coli, His-NTA then Q-sepharose; 360 kDa α2β2γ2 heterohexamer with Mn(II); ATP/AMP site in beta subunit, Mn(II) site in alpha subunit; with Acetone carboxylase gamma subunit

[2] = target: T2, acetone carboxylase (XaAC) (Xanthobacter versatilis, UniProt Q8RM03+Q8RM04, Q8RM03:E89D); test: X-band EPR of active-site Mn(II); assay type: binding; conditions: 10 mM AMP, 1 mM MgCl2; 50 mM Tris, pH 7.6, 150 mM NaCl; 12 K
T2 construct: gene acxA; recombinant from E. coli, His-NTA then Q-sepharose; 360 kDa α2β2γ2 heterohexamer with Mn(II); ATP/AMP site in beta subunit, Mn(II) site in alpha subunit; with Acetone carboxylase gamma subunit

[3] = target: T3, acetone carboxylase (XaAC) (Xanthobacter versatilis, UniProt Q8RM03+Q8RM04); test: differential scanning fluorimetry, SYPRO orange; assay type: binding; set-up: gene acxA; recombinant from E. coli, His-NTA then Q-sepharose; 360 kDa α2β2γ2 heterohexamer with Mn(II); ATP/AMP site in beta subunit, Mn(II) site in alpha subunit; with Acetone carboxylase gamma subunit; conditions: 10 mM AMP; 100 mM Tris, 100 mM KCl, pH 7.6; absolute Tm, not a shift
[4] = target: T3, acetone carboxylase (XaAC); set-up: gene acxA; conditions: only tested together with AMP (10 mM AMP-acetate), 1 mM MgCl2, pH 7.6; Mn(II) site
[5] = target: T4, Xanthobacter autotrophicus acetone carboxylase α subunit (Xanthobacter autotrophicus, UniProt Q8RM03 1-776); test: SEC + native gel or EMSA; complexes co-purified from E. coli lysate (His-NTA, then Q-sepharose), stored in 50 mM Tris pH 7.6, 150 mM NaCl, 10% glycerol, then tested by size exclusion chromatography and native gel for integrity; conditions: both partners purified
T4 construct: acetone carboxylase alpha subunit, Xanthobacter autotrophicus; holds the Mn(II) site (H150, D153, H175, E89); A His-NTA column was used, so one subunit probably carries a His tag; also called XaAC α; AC alpha subunit; source: E. coli, purified as the complex (His-NTA, Q-sepharose)
T4 sequence: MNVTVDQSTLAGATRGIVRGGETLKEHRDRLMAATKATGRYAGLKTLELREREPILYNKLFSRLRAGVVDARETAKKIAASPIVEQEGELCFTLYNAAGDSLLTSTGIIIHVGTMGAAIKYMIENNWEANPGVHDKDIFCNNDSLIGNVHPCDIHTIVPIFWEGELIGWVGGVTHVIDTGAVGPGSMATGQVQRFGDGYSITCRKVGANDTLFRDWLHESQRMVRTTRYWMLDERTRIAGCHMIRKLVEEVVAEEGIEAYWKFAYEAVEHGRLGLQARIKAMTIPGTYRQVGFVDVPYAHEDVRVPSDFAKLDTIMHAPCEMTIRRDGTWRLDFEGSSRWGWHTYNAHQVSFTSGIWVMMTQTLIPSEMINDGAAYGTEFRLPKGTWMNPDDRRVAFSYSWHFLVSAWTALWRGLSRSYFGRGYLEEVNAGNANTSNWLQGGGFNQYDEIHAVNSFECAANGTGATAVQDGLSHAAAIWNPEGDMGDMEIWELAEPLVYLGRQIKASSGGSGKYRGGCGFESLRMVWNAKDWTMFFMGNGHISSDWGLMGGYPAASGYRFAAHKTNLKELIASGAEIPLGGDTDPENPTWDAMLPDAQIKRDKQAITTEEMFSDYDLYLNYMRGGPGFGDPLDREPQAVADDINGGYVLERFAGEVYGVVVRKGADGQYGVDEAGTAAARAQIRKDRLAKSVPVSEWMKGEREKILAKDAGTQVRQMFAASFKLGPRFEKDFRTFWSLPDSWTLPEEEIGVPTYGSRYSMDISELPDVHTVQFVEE

[6] = target: T5, Xanthobacter autotrophicus acetone carboxylase α subunit, αE89A variant (Xanthobacter autotrophicus, UniProt Q8RM03 1-776, αE89A); test: as above; conditions: both partners purified
T5 construct: acetone carboxylase alpha subunit, Xanthobacter autotrophicus, glutamate 89 substituted by alanine; The PDB entries are of the wild-type parent; also called E89A XaAC; E89A AC; source: E. coli, purified as the complex (His-NTA, Q-sepharose)
T5 sequence: T4 sequence with E89A

[7] = target: T6, Xanthobacter autotrophicus acetone carboxylase α subunit, αE89D variant (Xanthobacter autotrophicus, UniProt Q8RM03 1-776, αE89D); test: as above; conditions: both partners purified
T6 construct: acetone carboxylase alpha subunit, Xanthobacter autotrophicus, glutamate 89 substituted by aspartate; The PDB entries are of the wild-type parent; also called E89D XaAC; E89D AC; source: E. coli, purified as the complex (His-NTA, Q-sepharose)
T6 sequence: T4 sequence with E89D

T1 sequence (Q8RM03 whole entry E89A, one chain of several): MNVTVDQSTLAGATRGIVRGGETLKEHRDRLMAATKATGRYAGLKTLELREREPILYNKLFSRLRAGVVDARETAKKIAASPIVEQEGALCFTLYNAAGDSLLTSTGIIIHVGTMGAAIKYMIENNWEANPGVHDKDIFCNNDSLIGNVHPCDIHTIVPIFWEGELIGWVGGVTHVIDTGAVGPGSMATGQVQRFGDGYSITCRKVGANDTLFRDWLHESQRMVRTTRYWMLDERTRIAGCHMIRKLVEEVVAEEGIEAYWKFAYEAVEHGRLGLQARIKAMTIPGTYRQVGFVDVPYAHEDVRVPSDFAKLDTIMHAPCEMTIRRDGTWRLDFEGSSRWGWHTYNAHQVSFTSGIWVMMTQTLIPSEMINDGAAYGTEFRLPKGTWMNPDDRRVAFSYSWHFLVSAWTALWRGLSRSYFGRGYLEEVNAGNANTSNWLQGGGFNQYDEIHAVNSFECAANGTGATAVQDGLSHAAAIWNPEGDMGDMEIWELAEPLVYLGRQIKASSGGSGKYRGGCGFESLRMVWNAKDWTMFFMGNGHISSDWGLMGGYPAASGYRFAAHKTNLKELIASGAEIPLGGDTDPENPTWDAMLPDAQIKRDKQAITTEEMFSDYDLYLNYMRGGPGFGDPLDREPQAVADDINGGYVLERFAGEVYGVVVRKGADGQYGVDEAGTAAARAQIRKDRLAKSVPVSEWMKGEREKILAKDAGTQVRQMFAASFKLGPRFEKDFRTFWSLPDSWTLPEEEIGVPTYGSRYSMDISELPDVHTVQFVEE
T2 sequence (Q8RM03 whole entry E89D, one chain of several): as the sequence (Q8RM03 whole entry E89A, one chain of several) above, with A89D counted along it

Molecule: Nc1ncnc2c1ncn2[C@@H]1O[C@H](COP(=O)(O)O)[C@@H](O)[C@H]1O [AMP]
- Tm [1]: 76 ± 0.4 °C
- X-band EPR of active-site Mn(II) [2]: αE89D and the WT AC respond similarly to AMP binding
- Tm [3]: 76.5 ± 0.5 °C

Molecule: CC(=O)O [acetate]
- peptide-level and intact-protein HDX-MS [4]: when AMP and acetate were both present, seven of the eight peptides displayed opposite exchange patterns

Other lines, results leading:

- binding result [5]: binds
- binding result [6]: binds
- binding result [7]: binds
B1: Xanthobacter autotrophicus acetone carboxylase γ subunit (enzyme)
chain: MAYTRSKIVDLVDGKIDPDTLHQMLSTPKDPERFVTYVEILQERMPWDDKIILPLGPKLFIVQQKVSKKWTVRCECGHDFCDWKDNWKLSARVHVRDTPQKMEEIYPRLMAPTPSWQVIREYFCPECGTLHDVEAPTPWYPVIHDFSPDIEGFYQEWLGLPVPERADA
notes: acetone carboxylase gamma subunit, Xanthobacter autotrophicus; also called XaAC γ; AC gamma subunit; source: E. coli, purified as the complex (His-NTA, Q-sepharose)

- binding result [5]: binds
- binding result [6]: binds
- binding result [7]: binds
B2: Xanthobacter autotrophicus acetone carboxylase β subunit (enzyme)
chain: MNVPVGHLRNVQVLGIDAGGTMTDTFFVDQDGDFVVGKAQSTPQNEALGLIASSEDGLANWGMSLHEALAQLQTGVYSGTAMLNRVVQRKGLKCGLIVNRGMEDFHRMGRAVQSHLGYAYEDRIHLNTHRYDPPLVPRHLTRGVVERTDMIGTQVIPLREDTARDAARDLIAADAEGIVISLLHSYKNPENERRVRDIVLEEVEKSGKKIPVFASADYYPVRKETHRTNTTILEGYAAEPSRQTLSKISNAFKERGTKFDFRVMATHGGTISWKAKELARTIVSGPIGGVIGAKYLGEVLGYKNIACSDIGGTSFDVALITQGEMTIKNDPDMARLVLSLPLVAMDSVGAGAGSFIRLDPYTRAIKLGPDSAGYRVGVCWKESGIETVTISDCHMVLGYLNPDNFLGGAVKLDRQRSVDAIKAQIADPLGLSVEDAAAGVIELLDSDLRDYLRSMISGKGYSPASFVCFSYGGAGPVHTYGYTEGLGFEDVIVPAWAAGFSAFGCAAADFEYRYDKSLDINMPTETPDTDKEKAAATLQAAWEELTKNVLEEFKLNGYSADQVTLQPGYRMQYRGQLNDLEIESPLAQAHTAADWDQLTDAFNATYGRVYAASARSPELGYSVTGAIMRGMVPIPKPKIPKEPEEGETPPESAKIGTRKFYRKKRWVDAQLYHMESLRPGNRVMGPAVIESDATTFVVPDGFETWLDGHRLFHLREV
notes: acetone carboxylase beta subunit, Xanthobacter autotrophicus; also called XaAC β; AC beta subunit; source: E. coli, purified as the complex (His-NTA, Q-sepharose)
